Assay results as given in PMC10755861, “Structural analysis and functional evaluation of the disordered ß–hexosyltransferase region from Hamamotoa (Sporobolomyces) singularis” (Frontiers in Bioengineering and Biotechnology, 2023).

Legend:
[1] = target: the molecule itself; assay: SEC; purified variants; single peak, retention time 12.5 min, calculated Mw 150 kDa; data not shown
[2] = target: the molecule itself; assay: SAXS; rBHT(23–594)-HIS in solution at 1 mg/mL and 4 mg/mL; molecular mass by the method of Rambo and Tainer

Protein | stoichiometry N [1] | stoichiometry N [2]
rBHT(32–594)-HIS, recombinant ß-hexosyltransferase from Hamamotoa (Sporobolomyces) singularis, residues 32–594 (enzyme, UniProt Q564N5 32-594, looked up, ß-hexosyltransferase (BHT, BglA) of Hamamotoa (Sporobolomyces) singularis, 594-residue polypeptide, residues 32-594; Expressed behind the MFα pre-pro leader of pPIC9 (primer encodes KR-EAEA before residue 32; leftover leader residues are a surmise); Glycosylated enzyme; also called GS115::MFα-rBht(32–594)-HIS; JB223; not shown: His6, C-terminal, kept) SLTSNYETPSPTAIPLEPTPTATGTAELDALWNLVEAQYPVQTAAVTTLVTVPDDYKFEADPPSYALAGYETSEIAGLKFPKGFKFGVAGAAIQVEGAAKAEGRGPSTWDYLCHHYASTQCNNYDPDITTNHYYLYPLDFARLQHLGINTYSFSISWTRIYPLGAGYVNEAGLAHYDAVIHSAKKYGLEPVGTVFHWDTPLSLMLKYGAWQDTGDQIVKDFVTYATTVFKRYGNEVKTWFTFNEPRVFCSQNSGLPYNLTYPEGINSTSAVFRCTYNVLKAHGHAVKVYRDLVASGTIAAGEIGFKSDDNYPIPARPGNADDEESAKRHEAFRIGIFAQPVYGNGDYPDVVKETVGDMLPALTDEDKGYIKGSGDIFAIDGYRTDISHAALNGIANCIRNQSDPNWPVCEEGSDPFAHVYPSGFAIGQSADPLSSWLVNSAPFIRDQLKFLTQTYPAKGGIYFSEFGWAEDAEYDRQLLYQITWDGLRTQYLTDYLSQLLLAVHKDGINLRGALTWSFVDNWEWGLGMQQKFGFQFVNQSDPDLTRTFKLSAHAYAQFGRNHL | 2 | –
rBHT(57–594)-HIS, recombinant ß-hexosyltransferase from Hamamotoa (Sporobolomyces) singularis, residues 57–594 (enzyme, UniProt Q564N5 57-594, looked up, ß-hexosyltransferase (BHT, BglA) of Hamamotoa (Sporobolomyces) singularis, 594-residue polypeptide, residues 57-594; Expressed behind the MFα pre-pro leader of pPIC9 (primer encodes KR-EAEA before residue 57; leftover leader residues are a surmise); Glycosylated enzyme; also called GS115::MFα-rBht(57–594)-HIS; JB225; not shown: His6, C-terminal, kept) AELDALWNLVEAQYPVQTAAVTTLVTVPDDYKFEADPPSYALAGYETSEIAGLKFPKGFKFGVAGAAIQVEGAAKAEGRGPSTWDYLCHHYASTQCNNYDPDITTNHYYLYPLDFARLQHLGINTYSFSISWTRIYPLGAGYVNEAGLAHYDAVIHSAKKYGLEPVGTVFHWDTPLSLMLKYGAWQDTGDQIVKDFVTYATTVFKRYGNEVKTWFTFNEPRVFCSQNSGLPYNLTYPEGINSTSAVFRCTYNVLKAHGHAVKVYRDLVASGTIAAGEIGFKSDDNYPIPARPGNADDEESAKRHEAFRIGIFAQPVYGNGDYPDVVKETVGDMLPALTDEDKGYIKGSGDIFAIDGYRTDISHAALNGIANCIRNQSDPNWPVCEEGSDPFAHVYPSGFAIGQSADPLSSWLVNSAPFIRDQLKFLTQTYPAKGGIYFSEFGWAEDAEYDRQLLYQITWDGLRTQYLTDYLSQLLLAVHKDGINLRGALTWSFVDNWEWGLGMQQKFGFQFVNQSDPDLTRTFKLSAHAYAQFGRNHL | 2 | –
rBHT(54–594)-HIS, recombinant ß-hexosyltransferase from Hamamotoa (Sporobolomyces) singularis, residues 54–594 (enzyme, UniProt Q564N5 54-594, looked up, ß-hexosyltransferase (BHT, BglA) of Hamamotoa (Sporobolomyces) singularis, 594-residue polypeptide, residues 54-594; Expressed behind the MFα pre-pro leader of pPIC9 (primer encodes KR-EAEA before residue 54; leftover leader residues are a surmise); Glycosylated enzyme; also called GS115::MFα-rBht(54–594)-HIS; JB224; not shown: His6, C-terminal, kept) TGTAELDALWNLVEAQYPVQTAAVTTLVTVPDDYKFEADPPSYALAGYETSEIAGLKFPKGFKFGVAGAAIQVEGAAKAEGRGPSTWDYLCHHYASTQCNNYDPDITTNHYYLYPLDFARLQHLGINTYSFSISWTRIYPLGAGYVNEAGLAHYDAVIHSAKKYGLEPVGTVFHWDTPLSLMLKYGAWQDTGDQIVKDFVTYATTVFKRYGNEVKTWFTFNEPRVFCSQNSGLPYNLTYPEGINSTSAVFRCTYNVLKAHGHAVKVYRDLVASGTIAAGEIGFKSDDNYPIPARPGNADDEESAKRHEAFRIGIFAQPVYGNGDYPDVVKETVGDMLPALTDEDKGYIKGSGDIFAIDGYRTDISHAALNGIANCIRNQSDPNWPVCEEGSDPFAHVYPSGFAIGQSADPLSSWLVNSAPFIRDQLKFLTQTYPAKGGIYFSEFGWAEDAEYDRQLLYQITWDGLRTQYLTDYLSQLLLAVHKDGINLRGALTWSFVDNWEWGLGMQQKFGFQFVNQSDPDLTRTFKLSAHAYAQFGRNHL | 2 | –
rBHT(23–594)-HIS, recombinant ß-hexosyltransferase from Hamamotoa (Sporobolomyces) singularis, residues 23–594 (enzyme, UniProt Q564N5 23-594, looked up, N-glycosylation sites N289, N297, N431, N569 (NAG in the crystal structure); phosphorylation sites found in the crystal structure: T56, T74, T79, Expressed behind the S. cerevisiae alpha factor pre-pro leader (MFα) of pPIC9; the forward primer encodes KR-EAEA before residue 23, so some leader residues (EAEA) may be left on the N-terminus after processing (surmise); Residues 23-53 lack electron density in PDB 7L74; also called rBHT(23–594)-6XHIS; BglA; source: K. phaffii GS115, secreted into the culture medium, purified (HISTrap HP Nickel …)) VTYPGAIPLSLTSNYETPSPTAIPLEPTPTATGTAELDALWNLVEAQYPVQTAAVTTLVTVPDDYKFEADPPSYALAGYETSEIAGLKFPKGFKFGVAGAAIQVEGAAKAEGRGPSTWDYLCHHYASTQCNNYDPDITTNHYYLYPLDFARLQHLGINTYSFSISWTRIYPLGAGYVNEAGLAHYDAVIHSAKKYGLEPVGTVFHWDTPLSLMLKYGAWQDTGDQIVKDFVTYATTVFKRYGNEVKTWFTFNEPRVFCSQNSGLPYNLTYPEGINSTSAVFRCTYNVLKAHGHAVKVYRDLVASGTIAAGEIGFKSDDNYPIPARPGNADDEESAKRHEAFRIGIFAQPVYGNGDYPDVVKETVGDMLPALTDEDKGYIKGSGDIFAIDGYRTDISHAALNGIANCIRNQSDPNWPVCEEGSDPFAHVYPSGFAIGQSADPLSSWLVNSAPFIRDQLKFLTQTYPAKGGIYFSEFGWAEDAEYDRQLLYQITWDGLRTQYLTDYLSQLLLAVHKDGINLRGALTWSFVDNWEWGLGMQQKFGFQFVNQSDPDLTRTFKLSAHAYAQFGRNHL | – | 2
